These results are taken from publication PMC9958480, “Structural insights into the recognition of telomeric variant repeat TTGGGG by broad-complex, tramtrack and bric-à-brac - zinc finger protein ZBTB10”.

This data set deals with T1, ZBTB10 ZF1-2 R767Q (human, UniProt Q96DT7 713-779, R767Q).
T1 sequence: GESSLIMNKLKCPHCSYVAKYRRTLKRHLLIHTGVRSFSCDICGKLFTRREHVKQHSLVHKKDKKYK
Kind of data set: X-ray crystallography; Zn2+; 1.9 A, P1; ITC at 20 C, ~30 uM dsDNA in cell, ~300 uM protein in syringe; proteins dialyzed in 20 mM Tris-HCl pH 7.5, 150 mM NaCl (ITC buffer not separately stated). The following applies: protein: recombinant; tags: MBP removed by PreScission; 5' overhang 1 nt on each strand (T and A).

B1: TTAGGG crystal duplex (dsDNA)
DNA 1: TTAGGGTTATA
DNA 2: ATATAACCCTA
With B1, the binding result is on record as “binds”.
